The results in this text go back to article PMC6270503, “The Clip-Segment of the von Willebrand Domain 1 of the BMP Modulator Protein Crossveinless 2 Is Preformed” (Molecules, 2013).

For this assay, the target named is T1, E. coli derived recombinant human BMP-2 (human, UniProt P12643 283-396).
T1 construct: Bone morphogenetic protein 2, human, recombinant from E. coli; also called bone morphogenetic protein 2
In words: SPR; ProteON XPR36, GLC chip; BMP-2 immobilised by amine coupling (1000-2000 RU), CV2 VWC1 proteins as analytes in six concentrations; 25 °C, HBST500 (10 mM HEPES pH 7.4, 500 mM NaCl, 0.005% Tween20); global Langmuir 1:1 fit, KD = koff/kon, or from dose-dependency of equilibrium binding for weak or fast binders; apparent KD. The note with it: both partners purified. In general terms: SPR reads the build-up and loss of mass on a sensor chip optically.

T1 sequence (P12643 283-396): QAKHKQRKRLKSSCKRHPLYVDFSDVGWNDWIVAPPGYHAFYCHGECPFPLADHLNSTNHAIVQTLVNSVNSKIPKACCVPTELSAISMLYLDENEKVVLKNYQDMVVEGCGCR

B1: CV2 VWC1 C9A/C31A (domain or fragment)
chain: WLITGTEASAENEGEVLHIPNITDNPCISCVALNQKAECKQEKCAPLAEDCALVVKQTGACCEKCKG
modifications: Mature numbering = entity position minus 3 (C9A/C31A = C12A/C34A). Introduced N-terminal Trp kept; vector Gly-Ser left out. Remaining native disulfides, including Cys26-Cys60, Cys43-Cys61 and …
Broadly, the koff is a measure of how fast the partners let go of each other. Take B1: the Kd was at least 3.3 µM and the off-rate constant (koff) is at least 0.05 s⁻¹.
